This passage reports GMFI and IC80, inhibition of forskolin-triggered cAMP production results from patent publication US20210101970A1.

In test [1] the target is human CXCR5 (human) (UniProt P32302). Briefly: FACS on cells expressing the CXCR5 construct.
The next test addresses mouse CXCR5 (mouse) (UniProt Q04683). Briefly: FACS on cells expressing the CXCR5 construct.
Test [2] deals with human CXCR5 (human) (UniProt P32302). Briefly: cell-based or functional assay.

human CXCR5 (human), sequence (P32302 whole entry): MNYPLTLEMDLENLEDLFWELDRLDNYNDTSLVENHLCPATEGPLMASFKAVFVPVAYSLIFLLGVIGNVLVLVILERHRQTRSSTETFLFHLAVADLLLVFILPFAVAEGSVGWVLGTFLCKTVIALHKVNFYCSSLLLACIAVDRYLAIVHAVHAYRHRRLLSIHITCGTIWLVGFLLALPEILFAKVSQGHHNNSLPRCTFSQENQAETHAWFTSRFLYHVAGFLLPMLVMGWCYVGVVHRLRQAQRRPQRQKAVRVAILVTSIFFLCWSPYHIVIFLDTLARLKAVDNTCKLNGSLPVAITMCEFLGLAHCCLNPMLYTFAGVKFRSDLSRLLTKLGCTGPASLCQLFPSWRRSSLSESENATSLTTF
mouse CXCR5 (mouse), sequence (Q04683 whole entry): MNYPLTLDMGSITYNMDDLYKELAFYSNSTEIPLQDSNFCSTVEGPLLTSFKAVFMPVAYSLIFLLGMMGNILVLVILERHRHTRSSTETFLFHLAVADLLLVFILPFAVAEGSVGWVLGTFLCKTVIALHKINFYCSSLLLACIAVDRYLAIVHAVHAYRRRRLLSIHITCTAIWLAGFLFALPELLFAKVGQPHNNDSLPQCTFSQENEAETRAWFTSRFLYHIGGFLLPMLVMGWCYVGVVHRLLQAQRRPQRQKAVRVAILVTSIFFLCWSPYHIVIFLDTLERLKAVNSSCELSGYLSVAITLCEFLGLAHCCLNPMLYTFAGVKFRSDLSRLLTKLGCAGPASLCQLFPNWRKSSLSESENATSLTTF

As to “rabbit anti-human CXCR5 (catalog ab46218, Abcam) (antibody)”, the GMFI is 18600 GMFI with human CXCR5 (human) [1] and 1040 GMFI with mouse CXCR5 (mouse).
Take “recombinant hCXCL13 (from UniProt O43927 23-109) (ligand)”: the IC80, inhibition of forskolin-triggered cAMP production with human CXCR5 (human) [2] was 0.6 nM.
Turning to “rat anti-mouse CXCR5 (catalog MAB6198, R&D systems) (antibody)”, the GMFI with human CXCR5 (human) [1] is 2460 GMFI; with mouse CXCR5 (mouse), 12500 GMFI.
